Patent publication US5326551A, “Nuclear imaging uses of radio-labelled atrial natriuretic factor” (L'Istitut de Recherches Cliniques de Montreal, priority 1991, dated 1994)

Columns and labels:
[1] = adult males of approximately 75 kg, bolus injection; cited from earlier work
[2] = Gamma camera study of radio-labelled ANF in rabbits; type: in vivo, rabbit
Method: A gamma camera study was carried out using ^131 I-ANF in domestic rabbits. The animals were sedated using Nembutal and the ANF was injected via the marginal ear vein. Camera images were taken at 100,000 count intervals up to 2.5 hours post injection.
A subsequent study with ^123 I-ANF in New Zealand White rabbits was also carried out. The animals were sedated with Nembutal and ANF was injected via the marginal ear vein. Camera images were taken at 100,000 intervals up to 1.25 hours post injection.

[3] = Gamma camera imaging of radio-labelled ANF uptake in green vervet monkey; type: in vivo
Method: ANF 99-126, rat form: 5 μg) was labelled by the inventors with ^125 I (1 mCi, obtained from commercial sources) using the lactoperoxidase method. The labelled compound was purified on HPLC (C-18 μBondapak™ column) by known methods. 250 μCi of the ^125 I ANF was administered to a 7 kg male monkey of green vervet species, as an intravenous bolus, under pentobarbital anesthesia. Prior to the experiment, the monkey was kept in a single cage with free access to food and water. The animal was subjected to data acquisition for 60 minutes using, as the scintillation detector, a gamma camera attached to a computer. Images and computer data were acquired at 10 second intervals.
A 7 kg anesthetized monkey which had been previously dehydrated for 18 hours was injected with an intravenous bolus injection of 80 μCi of ^131 I-ANF. […] Serial images (0-5, 5-10, 10-20 min.) and time activity curves were done and analyzed of the following regions of interest: the lungs, the kidneys, the upper and lower abdomen. […]
Serial images (0-7, 7-13, 13-20, 20-26, 26-30 min.) and time-activity curves were obtained and analyzed of the regions of interest over the lungs, kidneys, upper and lower abdomen. […]
The maximum and minimum levels of radioactivity over the 3 hour test period are given in each case.

Molecule	bolus dose giving a medically effective hypotensive effect [1]	most prominent organ ([2]; lung also visible)	time of rapid accumulation in the kidney ([2]; post-injection, marginal ear vein, Nembutal sedation)	uptake of radio-label ([3]; 7 kg monkey dehydrated for 18 hours, 80 μCi intravenous bolus)	uptake of radio-label compared with dehydrated animal ([3]; 7 kg monkey hydrated with 120 cc saline, 65 μCi intravenous)
CC[C@H](C)[C@@H]1NC(=O)[C@H](CCCNC(=N)N)NC(=O)[C@H](CC(=O)O)NC(=O)[C@H](CCSC)NC(=O)[C@H](CCCNC(=N)N)NC(=O)CNC(=O)CNC(=O)[C@H](Cc2ccccc2)NC(=O)[C@@H](NC(=O)[C@H](CO)NC(=O)[C@H](CO)NC(=O)[C@H](CCCNC(=N)N)NC(=O)[C@H](CCCNC(=N)N)NC(=O)[C@H](CC(C)C)NC(=O)[C@@H](N)CO)CSSC[C@@H](C(=O)N[C@@H](CC(N)=O)C(=O)N[C@@H](CO)C(=O)N[C@@H](Cc2ccccc2)C(=O)N[C@@H](CCCNC(=N)N)C(=O)N[C@@H](Cc2ccc(O)cc2)C(=O)O)NC(=O)CNC(=O)[C@H](CC(C)C)NC(=O)CNC(=O)[C@H](CO)NC(=O)[C@H](CCC(N)=O)NC(=O)[C@H](C)NC(=O)CNC1=O [ANF, atrial natriuretic factor]	greater than 50 μg				
^131 I-ANF: human ANF (99-126) with methionine in position 110 labelled with ^131 I; in Example 7 rat or human ANF		kidney was the most prominent organ	3 min	rapid uptake of radio-label particularly by the kidneys and lungs	lesser uptake of radio-label in both kidney and lung
